Starred links: 1 amine or outer side, 2 acyl side, 3 side chain; linkers in the order of their positions; H or OH if unused. Positions of bridges follow the written chain, without caps; N, C: chain ends. Non-standard residues stand in square brackets, D forms with d. Primed or numbered codes have the meaning given here. *: point of attachment. PyrS2″ = (S)-3-amino-1-((pent-4-en-1-yloxy)carbonyl)pyrrolidine-3-carboxylic acid (stapling residue), C=CCCCOC(=O)N1CC[C@@](N[*:1])(C(=O)[*:2])C1; B5(4) = 2,2-bis(4-pentenyl)glycine = 2-amino-2-(pent-4-en-1-yl)hept-6-enoic acid (stitching residue), C=CCCCC(CCCC=C)(N[*:1])C(=O)[*:2]; B5(5) = 2,2-bis(4-pentenyl)glycine, 2-amino-2-(pent-4-en-1-yl)hept-6-enoic acid (stitching residue), C=CCCCC(CCCC=C)(N[*:1])C(=O)[*:2]; B5(33) = 2-amino-2-(pent-4-en-1-yl)hept-6-enoic acid (bis-pentenylglycine, two olefin side chains), C=CCCCC(CCCC=C)(N[*:1])C(=O)[*:2]; PyrS2 = (S)-3-amino-1-((pent-4-en-1-yloxy)carbonyl)pyrrolidine-3-carboxylic acid, C=CCCCOC(=O)N1CC[C@@](N[*:1])(C(=O)[*:2])C1; Phe(3-COOH) = N[C@@H](Cc1cccc(C(=O)O)c1)C(=O)O; Phe(2-CF3) = N[C@@H](Cc1ccccc1C(F)(F)F)C(=O)O; Phe(2-Cl) = N[C@@H](Cc1ccccc1Cl)C(=O)O; 2Nal = N[C@@H](Cc1ccc2ccccc2c1)C(=O)O; Bta = N[C@@H](Cc1csc2ccccc12)C(=O)O; Lys(iPr) = CC(C)NCCCC[C@H](N)C(=O)O; αAllylPro = C=CC[C@@]1(C(=O)O)CCCN1; tBuAla = CC(C)(C)C[C@H](N)C(=O)O; Propanoyl(3-OMe) = COCCC(=O)*; Ms = CS(=O)(=O)*
T1: B-cat-Halo (UniProt P35222 1-781)
T1 sequence (looked up): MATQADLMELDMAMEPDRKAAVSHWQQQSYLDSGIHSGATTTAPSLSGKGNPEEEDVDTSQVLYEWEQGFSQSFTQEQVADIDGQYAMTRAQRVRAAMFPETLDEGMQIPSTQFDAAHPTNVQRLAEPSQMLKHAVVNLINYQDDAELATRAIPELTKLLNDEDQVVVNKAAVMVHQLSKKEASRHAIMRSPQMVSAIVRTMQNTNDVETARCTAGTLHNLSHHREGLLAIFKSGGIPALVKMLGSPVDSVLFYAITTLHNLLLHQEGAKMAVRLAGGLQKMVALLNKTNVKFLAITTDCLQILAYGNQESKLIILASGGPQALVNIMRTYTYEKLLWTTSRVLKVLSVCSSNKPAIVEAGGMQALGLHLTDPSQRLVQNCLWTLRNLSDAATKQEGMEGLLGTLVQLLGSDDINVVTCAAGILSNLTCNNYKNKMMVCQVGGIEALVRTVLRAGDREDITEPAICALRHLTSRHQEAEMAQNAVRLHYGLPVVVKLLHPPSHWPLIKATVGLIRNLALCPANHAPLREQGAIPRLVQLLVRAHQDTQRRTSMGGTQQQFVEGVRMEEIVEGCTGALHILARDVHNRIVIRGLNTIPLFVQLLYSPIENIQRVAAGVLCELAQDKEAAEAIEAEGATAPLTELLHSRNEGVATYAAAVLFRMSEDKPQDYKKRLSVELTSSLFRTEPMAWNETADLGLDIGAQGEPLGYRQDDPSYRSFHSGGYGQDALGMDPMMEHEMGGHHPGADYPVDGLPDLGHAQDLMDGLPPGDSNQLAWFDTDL

T2: B-cat-Halo (beta-catenin HaloTag fusion expressed in HEK293 cells) (Homo sapiens (Human), UniProt P35222 1-781)
T2 sequence: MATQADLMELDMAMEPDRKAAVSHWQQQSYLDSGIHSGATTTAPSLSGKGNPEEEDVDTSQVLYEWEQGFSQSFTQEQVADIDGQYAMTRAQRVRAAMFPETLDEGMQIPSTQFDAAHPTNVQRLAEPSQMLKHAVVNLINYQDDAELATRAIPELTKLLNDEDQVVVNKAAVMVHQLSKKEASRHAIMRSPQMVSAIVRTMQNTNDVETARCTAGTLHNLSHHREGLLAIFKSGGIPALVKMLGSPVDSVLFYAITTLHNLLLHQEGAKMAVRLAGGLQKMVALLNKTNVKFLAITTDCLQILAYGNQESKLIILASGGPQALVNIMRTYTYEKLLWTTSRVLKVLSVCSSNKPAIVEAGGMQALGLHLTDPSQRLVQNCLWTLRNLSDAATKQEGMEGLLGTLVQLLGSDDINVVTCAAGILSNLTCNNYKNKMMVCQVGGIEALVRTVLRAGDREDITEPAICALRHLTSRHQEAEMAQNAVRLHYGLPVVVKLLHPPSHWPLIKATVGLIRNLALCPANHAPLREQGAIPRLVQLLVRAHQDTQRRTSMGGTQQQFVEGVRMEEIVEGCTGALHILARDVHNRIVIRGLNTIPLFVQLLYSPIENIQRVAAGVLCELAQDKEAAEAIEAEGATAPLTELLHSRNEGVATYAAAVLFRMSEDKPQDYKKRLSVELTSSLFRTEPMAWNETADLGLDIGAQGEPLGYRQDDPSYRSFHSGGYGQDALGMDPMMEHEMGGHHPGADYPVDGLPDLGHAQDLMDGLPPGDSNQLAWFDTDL

B1: I-1277 (peptide)
peptide: Ac-[αAllylPro]D[tBuAla][B5(5)]DD[Lys(iPr)]AFL[PyrS2][Phe(2-Cl)][Bta]L-NH2
modifications: staple 1-4, 4-11; not fully specified; printed as Ac-PL3-Asp-Npg-B5-Asp-Asp-iPrLys-Ala-Phe-Leu-PyrS2-2C1F-BztA-Leu-NH2
B2: I-1259 (peptide)
peptide: {Propanoyl(3-OMe)}-[αAllylPro]D[tBuAla][B5(33)]DDAAFN[PyrS2][Phe(2-Cl)][Bta][dT]-NH2
modifications: staple 1-4, 4-11 (inferred); not fully specified; printed as MeOPr-PL3-Asp-Npg-B5-Asp-Asp-Ala-Ala-Phe-Asn-PyrS2-2C1F-BztA-dThr-NH2
B3: I-1273 (peptide)
peptide: Ac-[αAllylPro]D[tBuAla][B5(5)]DD[Lys(iPr)]AFT[PyrS2″][Phe(2-Cl)][Bta]T-NH2
modifications: staple 1-4; staple 4-11 (inferred); not fully specified; printed as Ac-PL3-Asp-Npg-B5-Asp-Asp-iPrLys-Ala-Phe-Thr-PyrS2-2C1F-BztA-Thr-NH2
B4: I-1263 (peptide)
peptide: Ac-[αAllylPro]D[tBuAla][B5(33)]DTAAFT[PyrS2]F[Bta]S-NH2
modifications: staple 1-4, 4-11 (inferred); not fully specified; printed as Ac-PL3-Asp-Npg-B5-Asp-Thr-Ala-Ala-Phe-Thr-PyrS2-Phe-BztA-Ser-NH2
B5: I-1274 (peptide)
peptide: Ac-[αAllylPro]D[tBuAla][B5(5)]DD[Lys(iPr)]AFT[PyrS2″][Phe(2-Cl)][Bta]L-NH2
modifications: staple 1-4; staple 4-11 (inferred); not fully specified; printed as Ac-PL3-Asp-Npg-B5-Asp-Asp-iPrLys-Ala-Phe-Thr-PyrS2-2C1F-BztA-Leu-NH2
B6: I-1258 (peptide)
peptide: Ms-[αAllylPro]D[tBuAla][B5(33)]DDAAFN[PyrS2][Phe(2-Cl)][Bta][dT]-NH2
modifications: staple 1-4, 4-11 (inferred); not fully specified; printed as MeSO2-PL3-Asp-Npg-B5-Asp-Asp-Ala-Ala-Phe-Asn-PyrS2-2C1F-BztA-dThr-NH2
B7: I-1275 (peptide)
peptide: Ac-[αAllylPro]D[tBuAla][B5(5)]DD[Lys(iPr)]AFL[PyrS2″][Phe(2-Cl)][Bta]Q-NH2
modifications: staple 1-4; staple 4-11 (inferred); not fully specified; printed as Ac-PL3-Asp-Npg-B5-Asp-Asp-iPrLys-Ala-Phe-Leu-PyrS2-2C1F-BztA-Gln-NH2
B8: I-1276 (peptide)
peptide: Ac-[αAllylPro]D[tBuAla][B5(5)]DD[Lys(iPr)]AFL[PyrS2″][Phe(2-Cl)][Bta]T-NH2
modifications: staple 1-4; staple 4-11 (inferred); not fully specified; printed as Ac-PL3-Asp-Npg-B5-Asp-Asp-iPrLys-Ala-Phe-Leu-PyrS2-2C1F-BztA-Thr-NH2

Each binder was assayed against T1, B-cat-Halo (assay: cell-based or functional assay).
B1 was tested, and the “NanoBRET Abs IC50” value was greater than 20 µM. With B2 the “NanoBRET Abs IC50” value was 18.1 µM. With B3 the “NanoBRET Abs IC50” value was greater than 20 µM. With B4 the “NanoBRET Abs IC50” value was 20 µM. For B5, the “NanoBRET Abs IC50” value was greater than 20 µM. B6 was tested, and the “NanoBRET Abs IC50” value was greater than 20 µM. B7 was tested, and the “NanoBRET Abs IC50” value was 27.8 µM. In the case of B8, the “NanoBRET Abs IC50” value is reported as greater than 20 µM.

The binders below were run against T2, B-cat-Halo (beta-catenin HaloTag fusion …) (assay: cell-based or functional assay).
With Ac-[αAllylPro]D[tBuAla][B5(4)]D[Phe(3-COOH)]AAFL[PyrS2″][Phe(2-CF3)][RbMe2NapA]Q-NH2 (staple 1-4, 4-11) [I-2462] the “NanoBRET Abs IC50” value was 4.7 µM. With Ac-[αAllylPro]D[tBuAla][B5(4)]D[Phe(3-COOH)]QAFL[PyrS2″][Phe(2-CF3)][2Nal]A-NH2 (staple 1-4, 4-11) [I-2461] the “NanoBRET Abs IC50” value was 25.4 µM.

From patent publication US20240116985A1 (published 2024)
